Assay results published in the supplement of paper PMC10567573.

B1: EDARADD (parent)
chain: VEKVLRRWVDEEWPKRERGDPSRH

Variants of: B1
Test: protein stability index of a GFP-peptide fusion (GPS, HEK-293T) (PSI 1-6); higher = more stable
Conditions: c terminus: a fixed tail appended
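Note: lentivirally expressed fusions sorted by FACS into six bins by GFP to DsRed ratio, PSI derived from sequencing read proportions per bin multiplied by bin number.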

Point of comparison: E11M, protein stability index 1.74. Against it:
- E12M — higher, 2.08
- E12A — higher, 1.87
- E12D — higher, 2.45
- E12V — higher, 2.12
- E12I — higher, 2.06
- E12Q — higher, 1.95
- E12C — higher, 2.28
- E12H — higher, 1.99
- E12R — higher, 3.4
- E12P — higher, 2.4
- E12G — higher, 2.81
- E12N — higher, 1.92
- E12F — higher, 1.78
- E12S — higher, 2.36
- E12K — higher, 2.66
- E12W — lower, 1.54
- E12T — higher, 2.27
- E12Y — higher, 1.81
- V9M — higher, 3.17
- V9D — higher, 4.36
- V9N — higher, 3.59
- V9P — higher, 3.51
- V9H — higher, 3.46
- V9Q — higher, 3.31
- V9T — higher, 3.72
- V9R — higher, 3.48
- V9W — higher, 3.05
- V9F — higher, 2.55
- V9A — higher, 3.57
- V9G — higher, 3.83
- V9K — higher, 2.9
- V9C — higher, 2.72
- V9Y — higher, 3.1
- V9I — higher, 2.38
- V9E — higher, 4.17
- V9S — higher, 4.07
- E17L — higher, 2.7
- E17V — higher, 1.96
- E17Q — higher, 2.99
- E17F — higher, 2.01
- E17A — higher, 3.43
- E17M — higher, 2.97
- E17W — higher, 1.83
- E17T — higher, 2.45
- E17C — higher, 2.26
- E17H — higher, 3.27
- E17I — higher, 2.19
- E17N — higher, 2.84
- E17Y — higher, 2.55
- E17K — higher, 2.96
- E17R — higher, 2.85
- E17G — higher, 3.32
- E17S — higher, 2.44
- E17D — higher, 3.53
- E17P — lower, 1.68
- D10R — higher, 2.62
- D10F — higher, 2.81
- D10K — higher, 2.4
- D10N — higher, 2.71
- D10Y — higher, 2.59
- D10S — higher, 3.4
- D10G — higher, 3.39
- D10W — higher, 2.88
- D10V — higher, 2.47
- D10L — higher, 3.29
- D10H — higher, 2.44
- D10P — higher, 3.4
- D10C — higher, 2.69
- D10A — higher, 2.53
- D10Q — higher, 2.73
- D10I — higher, 2.65
- D10T — higher, 2.74
- D10M — higher, 2.26
- K3G — higher, 4.05
- K3Q — higher, 2.85
- K3A — higher, 2.78
- K3I — lower, 1.25
- K3T — higher, 2.14
- K3P — higher, 3.8
- K3Y — higher, 2.77
- K3L — higher, 2.41
- K3V — higher, 2.09
- K3H — higher, 5.03
- K3N — higher, 3.26
- K3C — higher, 3.38
- K3F — higher, 2.21
- K3E — higher, 3.55
- K3W — lower, 1.36
- K3S — higher, 3.01
- K3D — higher, 4.38
- L5H — higher, 4.26
- L5E — higher, 4.5
- L5N — higher, 3.94
- L5D — higher, 4.57
- L5K — higher, 2.96
- L5V — higher, 3.23
- L5Q — higher, 2.78
- L5F — higher, 3.25
- L5R — higher, 1.99
- L5P — higher, 4.07
- L5M — higher, 3.3
- L5T — higher, 3.98
- L5C — higher, 2.71
- L5W — higher, 2.98
- L5Y — higher, 2.34
- L5G — higher, 4.19
- L5A — higher, 4.3
- L5S — higher, 2.8
- L5I — higher, 2.96
- R16S — higher, 2.58
- R16A — higher, 3.55
- R16Q — higher, 2.1
- R16I — higher, 3.77
- R16L — higher, 2.69
- R16M — higher, 2.7
- R16P — higher, 3
- R16V — higher, 2.49
- R16T — higher, 3.46
- R16E — higher, 3.66
- R16F — higher, 2.46
- R16N — higher, 3.62
- R16Y — higher, 2.14
- R16D — higher, 2.83
- R16K — higher, 2.48
- R16C — higher, 2.67
- W13E — higher, 3.75
- W13F — higher, 2.01
- W13G — higher, 4.24
- W13Y — higher, 2.79
- W13C — higher, 3.21
- W13V — higher, 3.98
- W13R — higher, 3.96
- W13L — higher, 3.38
- W13P — higher, 3.75
- W13S — higher, 3.54
- W13I — higher, 3.35
- W13A — higher, 3.42
- W13N — higher, 3.86
- W13M — higher, 2.62
- W13Q — higher, 3.94
- W13D — higher, 3
- W13T — higher, 3.38
- W13H — higher, 4
- R6L — higher, 2.57
- R6W — higher, 3.38
- R6M — higher, 3.14
- R6A — higher, 3.88
- R6E — higher, 3.72
- R6K — higher, 3.86
- R6S — higher, 3.6
- R6F — higher, 2.76
- R6G — higher, 3.12
- R6Q — higher, 3.79
- R6P — higher, 5.27
- R6C — higher, 3.06
- R6N — higher, 3.94
- R6I — higher, 2.47
- R6D — higher, 4.34
- R6T — higher, 3.84
- R6Y — higher, 3.13
- W8Y — higher, 3.12
- W8R — higher, 4.13
- W8D — higher, 4.56
- W8P — higher, 4.71
- W8Q — higher, 4.78
- W8S — higher, 4.97
- W8N — higher, 5.25
- W8I — higher, 3.4
- W8C — higher, 4.03
- W8K — higher, 4.43
- W8A — higher, 3.98
- W8G — higher, 4.8
- W8F — higher, 3.34
- W8H — higher, 4.08
- W8M — higher, 3.69
- W8L — higher, 2.76
- W8E — higher, 4.22
- W8T — higher, 4.06
- G19F — higher, 2.05
- G19L — higher, 2.37
- G19K — higher, 2.79
- G19N — higher, 2.41
- G19C — higher, 2.52
- G19H — higher, 3.06
- G19M — higher, 2.54
- G19E — higher, 3.14
- G19D — higher, 3.1
- G19I — higher, 2.6
- E11H — higher, 2.44
- E11S — higher, 2.71
- E11K — higher, 2.08
- E11Q — higher, 3.05
- E11G — higher, 3.1
- E11W — higher, 1.96
- E11F — higher, 2.16
- E11A — higher, 2.73
- E11V — higher, 1.88
- E11Y — higher, 2.09
- E11C — higher, 2.43
- E11T — higher, 2.61
- E11N — higher, 3.19
- E11R — lower, 1.59
- E11P — higher, 2.2
- E11I — higher, 2.7
- E11D — higher, 3.28
- V4R — higher, 3.42
- V4D — higher, 4.08
- V4S — higher, 4.21
- V4M — higher, 2.67
- V4P — higher, 3.71
- V4Q — higher, 2.76
- V4E — higher, 4.41
- V4I — higher, 2.69
- V4T — higher, 3.08
- V4K — higher, 3.06
- V4F — higher, 1.97
- V4Y — higher, 2.5
- V4H — higher, 3.6
- V4L — higher, 2.2
- V4N — higher, 4.2
- V4C — higher, 2.62
- V4W — higher, 3.53
- V4A — higher, 2.89
- V1G — higher, 3.61
- V1I — higher, 2.2
- V1S — higher, 2.39
- V1L — higher, 2.19
- V1W — higher, 2.28
- V1H — higher, 3.42
- V1E — higher, 4.19
- V1K — higher, 2.85
- V1T — higher, 2.91
- V1A — higher, 4.29
- V1Y — higher, 2.56
- V1D — higher, 4.36
- V1F — higher, 1.98
- V1P — higher, 3.94
- V1C — higher, 2.77
- V1Q — higher, 2.65
- V1N — higher, 3.91
- V1R — higher, 4.16
- V1M — higher, 2.95
- R18T — higher, 2.96
- R18W — higher, 2.64
- R18L — higher, 2.81
- R18Q — higher, 3.53
- R18P — higher, 3.34
- R18M — higher, 3.15
- R18D — higher, 3.18
- R18C — higher, 2.91
- R18E — higher, 3.73
- R18A — higher, 2.29
- R18S — higher, 2.83
- R18N — higher, 3.22
- R18V — higher, 2.99
- R18I — higher, 3.12
- R18F — higher, 2.5
- R18H — higher, 3.18
- R18G — higher, 3.58
- R18Y — higher, 2.44
- R18K — higher, 1.81
- R7M — higher, 2.69
- R7P — higher, 3.9
- R7Q — higher, 3.45
- R7N — higher, 4.48
- R7A — higher, 3.09
- R7F — higher, 3.61
- R7S — higher, 3.46
- R7T — higher, 3.6
- R7I — higher, 2.32
- R7D — higher, 4.05
- R7V — higher, 3.43
- R7C — higher, 2.35
- R7L — higher, 2.62
- R7H — higher, 3.56
- R7K — higher, 3.29
- R7G — higher, 3.98
- R7W — higher, 2.49
- R7Y — higher, 2.7
- R7E — higher, 3.91
- K15R — higher, 2.42
- K15N — higher, 2.25
- K15M — higher, 2.97
- K15L — higher, 2.41
- K15Q — higher, 2.24
- K15V — higher, 2.29
- K15I — higher, 2.82
- K15Y — higher, 2.31
- K15W — lower, 1.71
- K15E — higher, 3.96
- K15P — higher, 3.58
- K15F — higher, 2.74
- K15T — higher, 3.51
- K15C — higher, 3.18
- K15H — higher, 3.55
- K15D — higher, 3.17
- K15G — higher, 3.44
- K15S — higher, 3.33
- K15A — higher, 2.72
- P14D — higher, 2.39
- P14W — higher, 2.38
- P14Y — higher, 2.32
- P14R — higher, 3.06
- P14C — higher, 3.5
- P14M — higher, 2.62
- P14E — higher, 2.05
- P14N — higher, 2.8
- P14K — higher, 2.82
- P14F — higher, 2.14
- P14G — higher, 2.22
- P14T — higher, 2.49
- P14V — higher, 2.92
- P14L — higher, 2.13
- P14A — higher, 2.31
- P14S — higher, 2.59
- E2V — lower, 1.63
- E2K — lower, 1.24
- E2L — lower, 1.39
- E2A — higher, 2.61
- E2T — higher, 2.24
- E2C — higher, 2.3
- E2M — higher, 1.96
- E2Q — higher, 2.51
- E2S — higher, 2.46
- E2Y — higher, 1.89
- E2F — lower, 1.45
- E2W — higher, 2.05
- E2D — higher, 2.9
- E2I — lower, 1.72
- E2N — higher, 3.23
- E2R — higher, 2.53
- E2H — higher, 2.37
- E2P — higher, 2.94
